Results reported in US20260008856A1, “METHODS OF TREATING DISEASE USING ANTI-IL1RAP ANTIBODIES AND ANTIBODY DRUG CONJUGATES” (Bluefin Biomedicine, Inc., priority 2022, published 2026).

Tested on: TARC production in HDM stimulated human PBMCs
Experiment: TARC production in HDM stimulated human PBMCs
Assay type: cell-based
Conditions: antibodies 30 ug/ml, HDM 10 ug/ml
From the text: Materials included Human peripheral blood mononuclear cells (PBMCs) that were isolated from healthy donor blood and either frozen in liquid nitrogen and thawed prior to analysis or used fresh. Materials also included HDM (house dust mite extract) that was from Greer lab and purchased through Fisher Scientific (NC9756554, Lot #390844). Additionally, Human IL-4 (204-IL-010) was purchased from R&D Systems; Human IL-13 (200-13) was purchased from Peprotech; JAK inhibitors (JAKi) Abrocitinib (HY-107429) and Upadacitinib (HY-19569) were purchased from MedChemExpress; Dexamethasone (D4902) was purchased from Sigma-Aldrich; Dupilumab (HY-P9926) was purchased from MedChemExpress; Tralokinumab was produced by Bluefin Biomedicine according to the published protein sequence; and TARC ELISA kits (DuoSet Cat #DY364, Quantikine Cat #SDN00) were purchased from R&D Systems.
Blood was drawn in heparin tubes from healthy volunteers. PBMCs were isolated by centrifugation of the blood over Ficoll-Paque Plus density gradients using LeucoSep tubes.
0.2 million PBMCs in 100 ul medium (RPMI1640, 10% heat-inactivated FBS) were added to each well of 96 well cell culture plate. BFB759 at multiple concentrations in 50 ul medium was added to the wells. The cells were incubated in the incubator for 45 min. Then, 50 ul HDM solution (final concentration 10 ug/ml) was added to the wells. […]

B1: 37E10_15B5: human anti-IL1RAP antibody BFB759 (i.e., 37E10_15B5), VH SEQ ID NO: 64, VL SEQ ID NO: 68 (antibody, V domains shown)
VH: QVQLVESGGGVVQPGRSLRLSCAASGFTFRSHGMHWVRQAPGKGLEWVAVIWYDGSSEYYADSVKGRFTISRDNSKNTLYLQMNSLRAEDTAVYYCARENVYGSGWFFDYWGQGTLVTVSS
VL: EIVMTQSPATLSVSPGERASLSCRASQSVGSNLAWYQQRPGQAPRLLIFGASTRATGIPARFSGSRSGTEFTLTISSLQSEDFALYYCQQYNNWPPWTFGQGTKLEIK
For B1, the “inhibition of HDM induced TARC level, FIG. 13” value was “inhibits”.
